In article PMC5614552 (Biochemistry and Biophysics Reports, 2016) one finds Kd, koff and kon data, which are given here for one molecule.

The target in the assay is human CD34 protein (Fc tag; Sino Biological Incorporation) (Homo sapiens, UniProt P28906). The assay is described as follows: SPR.

A word on the Kd: it is a measure of binding affinity in units of concentration. Lower therefore signals a tighter complex. The term koff denotes a measure of how fast the partners let go of each other. For orientation: kon means the rate constant with which the complex forms. High values mean faster complex formation, low ones slower complex formation.

Chain of human CD34 protein (Fc tag; Sino Biological Incorporation) (P28906 32-290): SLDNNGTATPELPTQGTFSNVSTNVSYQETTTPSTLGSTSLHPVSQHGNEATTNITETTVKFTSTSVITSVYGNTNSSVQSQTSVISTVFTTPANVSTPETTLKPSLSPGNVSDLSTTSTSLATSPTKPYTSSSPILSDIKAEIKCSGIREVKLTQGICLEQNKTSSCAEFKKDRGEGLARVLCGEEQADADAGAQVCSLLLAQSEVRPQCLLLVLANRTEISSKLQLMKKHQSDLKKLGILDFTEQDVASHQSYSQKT

B1: Chimeric QBEND/10 (antibody, V domains shown)
VH: QVQLEQSGPELVKPGASVKMSCKASGYTFTSYVIHWVKQKPGQGLEWLGYTNPYNDVTKYNEKFKFKATLTSDKQSTTAYMEFSSLTSEDSAVYYCARYGGLWLYAMDYWGQGTSVTVSS
VL: QLVLTQSSSASFSLGASAKLTCTLSSQHRTFTIEWYQQQPLKPPKYVMELRKDGSHSTGDGIPDRFSGSSSGADRYLSISNIQPEDEAIYICGVGNTIKEQFVYVFGGGTKVTVL
Turning to B1, the affinity, expressed as Kd, was 14.7 nM; the koff amounted to 0.000262 s⁻¹; the kon was 17800 M⁻¹ s⁻¹.
